Experimental data published in patent publication US20210355194A1 (TWIST BIOSCIENCE, published 2021).
Read-outs that look alike come from different tables or passages of the source.

How the values were obtained:
[1] = target: T1, SARS-COV2-S1 RBD (mouse IgG2Fc tag) (SARS-CoV-2, UniProt P0DTC2 319-537)
[2] = target: T2, Acro SARS-CoV-2 (COVID-19) S1 protein (SARS-CoV-2, UniProt P0DTC2 16-685); test: SPR
T2 construct: also called SARS-CoV-2 S1

[3] = target: SARS-CoV-2 spike on live SARS-CoV-2 virus (SARS-CoV-2, UniProt P0DTC2 14-1273); test: cell-based or functional assay
[4] = target: T3, Acro SARS-CoV-2 (COVID-19) S1 protein (SARS-CoV-2, UniProt P0DTC2 16-685); test: SPR; remark: listed apart in the source
T3 construct: also called SARS-CoV-2 S1

[5] = target: SARS-COV2-S1 RBD (mouse IgG2Fc tag) (SARS-CoV-2, UniProt P0DTC2 319-537); test: FACS, S1 RBD-mFc on Vero E6 (ACE2)
SARS-CoV-2 S1 protein = target: T4, SARS-CoV-2 S1 protein (SARS-CoV-2, UniProt P0DTC2 16-685); test: phage ELISA screen on S1, mean
T4 construct: also called SARS-CoV-2 Spike Glycoprotein S1; S1 (subunit 1)

[6] = target: T1, SARS-COV2-S1 RBD (mouse IgG2Fc tag); test: FACS, blocks S1 RBD-mFc binding to ACE2 on Vero E6
[7] = target: T1, SARS-COV2-S1 RBD (mouse IgG2Fc tag); test: column not explained; likely FACS, S1 RBD on Vero E6

Row | Binder | IC50 [1] [nM] | Kd [2] [nM] | Kd [4] [nM] | Competition Factor [5] | also measured
1 | variant 6-10 (Fc fusion) VHH: EVQLVESGGGLVQPGGSLRLSCAASGSIASIHAMGWFRQAPGKEREFVAAISRSGGFGSYADSVKGRFTISADNSKNTAYLQMNSLKPEDTAVYYCARDDKYYDSSGYPAYFQHWGQGTLVTVSS | 1.44 | 29.7 |  |  | 
2 | variant 6-44 (Fc fusion) VHH: EVQLVESGGGLVQPGGSLRLSCAASGGTFGVYHMGWFRQAPGKEREFIGRITWTDGSTYYADSVKGRFTISADNSKNTAYLQMNSLKPEDTAVYYCFGLLEVYDMTFDYWGQGTLVTVSS | 0.97 | 8.2 |  |  | EC80 [3]: 3.16 µg/mL
3 | variant 6-73 (Fc fusion, VHH-Fc) VHH: EVQLVESGGGLVQPGGSLRLSCAASGHTFSGYAMGWFRQAPGKEREFVAVITREGSTYYADSVKGRFTISADNSKNTAYLQMNSLKPEDTAVYYCARLGGEGFDYWGQGTLVTVSS |  |  | 103 | 7.99 | 
4 | variant 6-76 (Fc fusion, VHH-Fc) VHH: EVQLVESGGGLVQPGGSLRLSCAASGLAFDFDGMGWFRQAPGKEREGVAAINSGGSTYYADSVKGRFTISADNSKNTAYLQMNSLKPEDTAVYYCARFFRAHDYWGQGTLVTVSS |  |  | 33.5 | 9.96 | 
5 | variant 6-45 (Fc fusion) VHH: EVQLVESGGGLVQPGGSLRLSCAASGNMFSINAMGWFRQAPGKEREFVTLISWSSGRTSYADSVKGRFTISADNSKNTAYLQMNSLKPEDTAVYYCASLGYCSGGSCFDYWGQGTLVTVSS | 1.16 | 17.5 |  |  | EC80 [3]: 4.02 µg/mL
6 | 2-4 (antibody, V domains shown, also called variant 2-4) VH: EVQLLESGGGLVQPGGSLRLSCAASGFTFSDFAMAWVRQAPGKGLEWVSAISGSGDITYYADSVKGRFTISRDNSKNTLYLQMNSLRAEDTAVYYCAREADGLHSPWHFDLWGQGTLVTVSS VL: DIQMTQSPSSLSASVGDRVTITCRASQSIDTYLNWYQQKPGKAPKLLIYAASALASGVPSRFSGSGSGTDFTLTISSLQPEDFATYYCQQSYSAPPYTFGQGTKVEIK |  |  |  |  | ELISA(Avg) (SARS-CoV-2 S1 protein): 15.5 fold over background
7 | variant 6-34 (Fc fusion) VHH: EVQLVESGGGLVQPGGSLRLSCAASGSAFRSNAMGWFRQAPGKEREFVAHISWSSKSTYYADSVKGRFTISADNSKNTAYLQMNSLKPEDTAVYYCATYCSSTSCFDYWGQGTLVTVSS | 8.24 | 21.3 |  |  | 
8 | variant 6-54 (Fc fusion) VHH: EVQLVESGGGLVQPGGSLRLSCAASGFEFENHWMGWFRQAPGKEREYVAHITAGGLSNYADSVKGRFTISADNSKNTAYLQMNSLKPEDTAVYYCGRHWGIYDSSGFSSFDYWGQGTLVTVSS | 8.9 |  |  |  | 
9 | variant 6-20 (Fc fusion, VHH-Fc) VHH: EVQLVESGGGLVQPGGSLRLSCAASGSTLPYHAMGWFRQAPGKEREFVAAITWNGASTSYADSVKGRFTISADNSKNTAYLQMNSLKPEDTAVYYCARDRYYDTSASYFESETWGQGTLVTVSS |  |  | 20.9 | 9.95 | 
10 | variant 6-60 (Fc fusion, VHH-Fc) VHH: EVQLVESGGGLVQPGGSLRLSCAASGDTYGSYWMGWFRQAPGKEREFVATISQSGAATAYADSVKGRFTISADNSKNTAYLQMNSLKPEDTAVYYCAGLLRYSGTYYDAFDVWGQGTLVTVSS |  |  | 20.1 | 12.6 | 
11 | variant 6-60 (Fc fusion) VHH: EVQLVESGGGLVQPGGSLRLSCAASGDTYGSYWMGWFRQAPGKEREFVATISQSGAATAYADSVKGRFTISADNSKNTAYLQMNSLKPEDTAVYYCAGLLRYSGTYYDAFDVWGQGTLVTVSS |  | 20.1 |  |  | IC50 [6]: 1.31 nM; MFI Fold Decrease [7]: 12.6 fold
12 | variant 6-18 (Fc fusion) VHH: EVQLVESGGGLVQPGGSLRLSCAASGLTFRNYAMGWFRQAPGKEREFIAGMMWSGGTTTYADSVKGRFTISADNSKNTAYLQMNSLKPEDTAVYYCAREGYYYDSSGYLNYFDYWGQGTLVTVSS | 12.3 | 30.1 |  |  | 
13 | variant 5-1 (Fc fusion, VHH-Fc) VHH: EVQLVESGGGLVQPGGSLRLSCAASGGTFSSIGMGWFRQAPGKEREFVAAISWDGGATAYADSVKGRFTISADNSKNTAYLQMNSLKPEDTAVYYCAKEDVGKPFDWGQGTLVTVSS |  |  | 15.1 | 10 | 
14 | variant 6-65 (Fc fusion) VHH: EVQLVESGGGLVQPGGSLRLSCAASGLPFSTLHMGWFRQAPGKEREFVASLSIFGATGYADSVKGRFTISADNSKNTAYLQMNSLKPEDTAVYYCWMYYYDSSGYYGNYYYGMDVWGQGTLVTVSS | 37.5 |  |  |  | 
15 | variant 6-38 (Fc fusion) VHH: EVQLVESGGGLVQPGGSLRLSCAASGNTFSGGFMGWFRQAPGKEREFVAVISSLSSKSYADSVKGRFTISADNSKNTAYLQMNSLKPEDTAVYYCAKVDSGYDYWGQGTLVTVSS | 1.94 | 26.6 |  |  | 
16 | variant 5-20 (Fc fusion, VHH-Fc) VHH: EVQLVESGGGLVQPGGSLRLSCAASGRTIVPYTMGWFRQAPGKERELVAAISPSAFTEYADSVKGRFTISADNSKNTAYLQMNSLKPEDTAVYYCAARRWGYDWGQGTLVTVSS |  |  | 14.3 | 12.4 | 
17 | variant 6-39 (Fc fusion) VHH: EVQLVESGGGLVQPGGSLRLSCAASGFTFSPSWMGWFRQAPGKEREFVAAISWSGGSTAYADSVKGRFTISADNSKNTAYLQMNSLKPEDTAVYYCHGLGEGDPYGDYEGYFDLWGQGTLVTVSS | 1.53 | 11.3 |  |  | 
18 | variant 6-78 (Fc fusion, VHH-Fc) VHH: EVQLVESGGGLVQPGGSLRLSCAASGRTYDAMGWFRQAPGKEREFVASVTSGGYTHYADSVKGRFTISADNSKNTAYLQMNSLKPEDTAVYYCAKFGRKIVGATELDYWGQGTLVTVSS |  |  | 18.9 | 9.27 | 
19 | variant 6-78 (Fc fusion) VHH: EVQLVESGGGLVQPGGSLRLSCAASGRTYDAMGWFRQAPGKEREFVASVTSGGYTHYADSVKGRFTISADNSKNTAYLQMNSLKPEDTAVYYCAKFGRKIVGATELDYWGQGTLVTVSS |  | 18.9 |  |  | IC50 [6]: 0.743 nM; MFI Fold Decrease [7]: 9.27 fold
20 | variant 6-1 (Fc fusion) VHH: EVQLVESGGGLVQPGGSLRLSCAASGRTFGNYNMGWFRQAPGKEREFVATINSLGGTSYADSVKGRFTISADNSKNTAYLQMNSLKPEDTAVYYCARVDYYMDVWGQGTLVTVSS | 15.8 |  |  |  | 
21 | variant 5-37 (Fc fusion, VHH-Fc) VHH: EVQLVESGGGLVQPGGSLRLSCAASGSTFSINAMGWFRQAPGKEREFVGGISRSGATTNYADSVKGRFTISADNSKNTAYLQMNSLKPEDTAVYYCAADGVPEYSDYASGPVWGQGTLVTVSS |  |  | 30.2 | 8.19 | 
22 | variant 5-34 (Fc fusion, VHH-Fc) VHH: EVQLVESGGGLVQPGGSLRLSCAASGRTFSRYIMGWFRQAPGKEREFVAAISWSGGDNTYYADSVKGRFTISADNSKNTAYLQMNSLKPEDTAVYYCAAYRIVVGGTSPGDWRWGQGTLVTVSS |  |  |  | 5.69 | 
23 | variant 6-55 (Fc fusion, VHH-Fc) VHH: EVQLVESGGGLVQPGGSLRLSCAASGFTMSSSWMGWFRQAPGKEREFVARITSGGSTGYADSVKGRFTISADNSKNTAYLQMNSLKPEDTAVYYCASVDGYFDYWGQGTLVTVSS |  |  | 25.2 | 7.98 | 
24 | variant 6-26 (Fc fusion, VHH-Fc) VHH: EVQLVESGGGLVQPGGSLRLSCAASGDTFSTSWMGWFRQAPGKEREFVATINTGGGTNYADSVKGRFTISADNSKNTAYLQMNSLKPEDTAVYYCARVTTSFDYWGQGTLVTVSS |  |  | 38.7 | 6.41 | 
25 | variant 6-77 (Fc fusion) VHH: EVQLVESGGGLVQPGGSLRLSCAASGFTFDRSWMGWFRQAPGKEREFVAAVTEGGTTSYADSVKGRFTISADNSKNTAYLQMNSLKPEDTAVYYCARADYDFDYWGQGTLVTVSS | 4.04 | 24.6 |  |  | 
26 | variant 6-30 (Fc fusion) VHH: EVQLVESGGGLVQPGGSLRLSCAASGFAFGDSWMGWFRQAPGKEREFVATINWSGVTAYADSVKGRFTISADNSKNTAYLQMNSLKPEDTAVYYCARADGYFDYWGQGTLVTVSS | 2.94 | 11.8 |  |  | 
27 | variant 6-26 (Fc fusion) VHH: EVQLVESGGGLVQPGGSLRLSCAASGDTFSTSWMGWFRQAPGKEREFVATINTGGGTNYADSVKGRFTISADNSKNTAYLQMNSLKPEDTAVYYCARVTTSFDYWGQGTLVTVSS |  | 38.7 |  |  | IC50 [6]: 1.07 nM; MFI Fold Decrease [7]: 6.41 fold
